This is an account of results in patent EP4574844A1 (Numab Therapeutics AG, dated 2025).

The target in test [1] is T1, human PD-L1 on the cell surface (human, UniProt Q9NZQ7 19-290). The test can be described thus: cell-based or functional assay.
Test [2] concerns the target T2, recombinant human PDL1 (human, UniProt Q9NZQ7 19-238, limits assumed).
T2 construct: SPR antigen; also called CD274; B7-H1
As to the kind of experiment: SPR. (SPR reads the build-up and loss of mass on a sensor chip optically.)

Test [3] concerns the target T3, recombinant cynomolgus PDL1 (cynomolgus monkey, UniProt G7PSE7 19-238).
T3 construct: also called cynom; PDL1
As to the kind of experiment: SPR.

Another test deals with recombinant human CD47 (human, UniProt Q08722 19-139, limits assumed). The test can be described thus: SPR, antigen immobilised, antibody as analyte.
Test [4] concerns the target T2, recombinant human PDL1. The test can be described thus: SPR, antigen immobilised, antibody as analyte.
For another test, the target named is T4, recombinant human LILRB2 (human, UniProt Q8N423 22-460, limits assumed).
T4 construct: also called ILT4
The test can be described thus: SPR, antibody captured by anti-framework IgG, antigen as analyte (without avidity).

The target in test [5] is T5, human LILRB2 on the cell surface (human, UniProt Q8N423 22-597). The test can be described thus: cell-based or functional assay.
Test [6] deals with T1, human PD-L1 on the cell surface. The test can be described thus: cell-based or functional assay. This is another data set of the same source.
For test [7], the target named is human CD47 on the cell surface (human, UniProt Q08722 19-323). The test can be described thus: cell-based or functional assay.
Test [8] concerns the target T5, human LILRB2 on the cell surface. As to the kind of experiment: cell-based or functional assay. The source holds these as a separate data set.

T3 sequence (G7PSE7 entry or part of it): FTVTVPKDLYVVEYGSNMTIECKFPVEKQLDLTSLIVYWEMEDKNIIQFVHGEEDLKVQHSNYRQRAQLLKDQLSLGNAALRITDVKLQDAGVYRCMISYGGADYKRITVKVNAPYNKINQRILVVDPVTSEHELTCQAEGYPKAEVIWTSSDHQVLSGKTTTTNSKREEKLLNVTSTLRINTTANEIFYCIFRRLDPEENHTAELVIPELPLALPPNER
T5 sequence (Q8N423 22-597): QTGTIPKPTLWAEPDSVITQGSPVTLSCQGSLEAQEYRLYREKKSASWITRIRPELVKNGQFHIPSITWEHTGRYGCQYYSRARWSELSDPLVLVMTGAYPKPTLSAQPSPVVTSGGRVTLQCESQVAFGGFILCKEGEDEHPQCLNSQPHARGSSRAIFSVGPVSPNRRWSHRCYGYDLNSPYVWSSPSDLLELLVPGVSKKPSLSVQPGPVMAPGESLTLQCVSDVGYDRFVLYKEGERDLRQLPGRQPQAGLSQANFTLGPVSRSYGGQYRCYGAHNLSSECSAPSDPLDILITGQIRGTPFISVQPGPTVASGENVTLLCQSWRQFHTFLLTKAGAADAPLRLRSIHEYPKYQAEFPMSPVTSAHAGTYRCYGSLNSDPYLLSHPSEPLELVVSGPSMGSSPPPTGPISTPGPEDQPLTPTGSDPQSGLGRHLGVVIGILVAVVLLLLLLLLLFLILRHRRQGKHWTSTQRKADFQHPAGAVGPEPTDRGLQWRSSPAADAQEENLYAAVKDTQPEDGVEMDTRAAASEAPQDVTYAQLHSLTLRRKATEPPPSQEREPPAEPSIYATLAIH
T4 sequence (Q8N423 22-460 limits assumed): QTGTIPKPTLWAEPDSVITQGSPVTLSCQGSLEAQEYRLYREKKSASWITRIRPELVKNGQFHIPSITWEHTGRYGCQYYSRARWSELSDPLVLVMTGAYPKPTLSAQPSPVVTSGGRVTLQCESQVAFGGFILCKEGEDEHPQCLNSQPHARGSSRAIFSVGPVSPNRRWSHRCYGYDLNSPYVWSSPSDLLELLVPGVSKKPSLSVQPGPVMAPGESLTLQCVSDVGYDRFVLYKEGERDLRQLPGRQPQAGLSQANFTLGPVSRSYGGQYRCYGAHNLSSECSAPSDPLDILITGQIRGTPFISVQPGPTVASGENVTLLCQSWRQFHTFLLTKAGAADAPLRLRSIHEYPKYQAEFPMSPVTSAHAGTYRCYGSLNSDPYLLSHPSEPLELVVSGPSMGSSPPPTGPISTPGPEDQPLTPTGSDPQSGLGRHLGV

B1: PRO4245 (scFv)
scFv: DIQMTQSPSSLSASVGDRVTITCQASQSIGTYLAWYQQKPGKPPKLLIYRGGILASGVPSRFSGSGSGTDFTLTISSLQPEDFATYYCQSNFYSDSTTIGPNAFGTGTKVTVLGGGGGSGGGGSGGGGSGGGGSQQLVESGGGLVQPGGSLRLSCAASGFSFNSDYWIYWVRQAPGKGLEWIASIYGGSSGNTQYASWAQGRFTISKDNSKNTVYLQMNSLRAEDSAVYFCARGYVDYGGATDLWGQGTLVKVSS
notes: anti-PDL1 scFv
Broadly, the koff is a measure of how fast the partners let go of each other. The term kon denotes a measure of how fast the partners come together. Consider B1, for which, in test [1], the “PDL1/PD-1 EC50 [nM], NFAT reporter gene assay” value (“PDL1/PD-1 EC50 [nM]” below) turned out to be 1.81 nM and the “PDL1/PD-1 Max. inhibition (rel. to avelumab) [%]” value (shortened to “PDL1/PD-1 Max. inhibition … [%]”) is 106%. In addition, in the test with recombinant human PDL1 [2], the Kd was 0.036 nM, the koff is 0.00014 s⁻¹ and the kon amounted to 4e+06 M⁻¹ s⁻¹. Further, in [3], the Kd came to 0.032 nM, the koff was determined as 0.00014 s⁻¹ and the kon amounted to 4.6e+06 M⁻¹ s⁻¹.

B2: PRO4687 (antibody, human IgG1, kappa)
chain: DVQMTQSPSSLSASVGDRVTITCQASQSISSWVSWYQQKPGKPPKLLIYRGGYLESGVPSRFSASGSGTDFTLTISSLQPEDFATYYCQSTDSSTYGGAFGCGTKVTVLGGGGGSGGGGSGGGGSGGGGSQQVVESGGGLVQPGGSLRLSCAVSGIDLNSYAMTWVRQAPGKCLEWIGYIGSASSTYYASWASGRFTISKDNSKNTVYLQMNSLRAEDSAVYFCARGSTYINIWGQGTLVKVSSEPKSSDKTHTCPPCPAPELLGGPSVFLFPPKPKDTLMISRTPEVTCVVVDVSHEDPEVKFNWYVDGVEVHNAKTKPREEQYNSTYRVVSVLTVLHQDWLNGKEYKCKVSNKALPAPIEKTISKAKGQPREPQVYTLPPCREEMTKNQVSLSCAVKGFYPSDIAVEWESNGQPENNYKTTPPVLDSDGSFFLVSKLTVDKSRWQQGNVFSCSVMHEALHNHYTQKSLSLSPGKGGGGSGGGGSDVQMTQSPSSLSASVGDRVTITCQASQSIGSNLAWYQQKPGKPPKLLIYKGGTLESGVPSRFSGSGSGTDFTLTISSLQPEDFATYYCQSTAGSSRSGNYGYVFGCGTKVTVLGGGGGSGGGGSGGGGSGGGGSQQLVESGGGLVQPGGSLRLSCAASGFSFTNNYYMCWVRQAPGKCLEWIACMLVGAWGNTYYASWANGRFTISKDNSKNTVYLQMNSLRAEDSAVYFCARARDYTWTLGGDPETSGFNLWGQGTLVKVSS
heavy: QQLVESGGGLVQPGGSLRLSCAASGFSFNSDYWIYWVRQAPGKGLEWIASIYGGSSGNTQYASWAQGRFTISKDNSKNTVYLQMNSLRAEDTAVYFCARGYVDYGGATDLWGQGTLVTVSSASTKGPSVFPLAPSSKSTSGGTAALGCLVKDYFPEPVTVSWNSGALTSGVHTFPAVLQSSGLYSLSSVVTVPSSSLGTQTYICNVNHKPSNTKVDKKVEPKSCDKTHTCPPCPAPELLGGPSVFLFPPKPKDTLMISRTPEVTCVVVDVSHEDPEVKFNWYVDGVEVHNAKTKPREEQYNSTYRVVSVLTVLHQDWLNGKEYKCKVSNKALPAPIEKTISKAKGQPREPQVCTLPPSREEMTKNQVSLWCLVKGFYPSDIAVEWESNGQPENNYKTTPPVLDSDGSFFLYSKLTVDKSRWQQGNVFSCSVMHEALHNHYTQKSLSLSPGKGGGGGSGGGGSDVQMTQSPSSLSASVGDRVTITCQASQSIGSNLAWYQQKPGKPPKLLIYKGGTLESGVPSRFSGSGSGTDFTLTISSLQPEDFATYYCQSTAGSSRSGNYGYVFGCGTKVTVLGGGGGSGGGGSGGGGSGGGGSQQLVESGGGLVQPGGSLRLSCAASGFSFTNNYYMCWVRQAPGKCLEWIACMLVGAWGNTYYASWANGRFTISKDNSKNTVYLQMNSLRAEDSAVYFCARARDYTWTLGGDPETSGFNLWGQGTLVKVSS
light: DIQMTQSPSSLSASVGDRVTITCQASQSIGTYLAWYQQKPGKPPKLLIYRGGILASGVPSRFSGSGSGTDFTLTISSLQPEDFATYYCQSNFYSDSTTIGPNAFGQGTKVEIKRTVAAPSVFIFPPSDEQLKSGTASVVCLLNNFYPREAKVQWKVDNALQSGNSQESVTEQDSKDSTYSLSSTLTLSKADYEKHKVYACEVTHQGLSSPVTKSFNRGEC
notes: trispecific anti-PDL1 x CD47 x LILRB2; PDL1-BD (37-20-B03-sc18) as Fab
As for B2, in the test with recombinant human CD47, the Kd amounted to 25.2 nM, the koff worked out at 0.0204 s⁻¹ and the on-rate (kon) is 811000 M⁻¹ s⁻¹. Also, in the test with recombinant human PDL1 [4], the Kd was determined as 0.0885 nM, the koff was determined as 0.000116 s⁻¹ and the on-rate constant (kon) turned out to be 1.31e+06 M⁻¹ s⁻¹. In the test with recombinant human LILRB2, the Kd stood at 0.36 nM, the koff was found to be 9.3e-05 s⁻¹ and the association rate constant (kon) came to 260000 M⁻¹ s⁻¹. In [5], the “CD86 EC50 [nM], re-polarization of M2 macrophages” value came out at 0.078 nM; the “CD163 EC50 [nM], re-polarization of M2 macrophages” value turned out to be 0.07 nM; the “CD206 EC50 [nM], re-polarization of M2 macrophages” value is 0.124 nM. In addition, the “PD-L1 driven EC50 [nM], phagocytosis of H292 cells” value (shortened to “PD-L1 driven EC50 [nM]”) in test [6] turned out to be 0.043 nM. Also, in test [7], the “CD47 driven EC50 [nM], phagocytosis of H292 cells” value (“CD47 driven EC50 [nM]” below) came to 8.62 nM. Besides, in [8], the “IL-1β EC50 [nM], LPS-driven cytokine secretion” value was 0.205 nM; the “IL-6 EC50 [nM], LPS-driven cytokine secretion” value was found to be 0.097 nM; the “TNF-α EC50 [nM], LPS-driven cytokine secretion” value stood at 0.175 nM.

B3: PRO4688 (antibody, human IgG1, kappa)
chain: DVQMTQSPSSLSASVGDRVTITCQASQSISSWVSWYQQKPGKPPKLLIYRGGYLESGVPSRFSASGSGTDFTLTISSLQPEDFATYYCQSTDSSTYGGAFGCGTKVTVLGGGGGSGGGGSGGGGSGGGGSQQVVESGGGLVQPGGSLRLSCAVSGIDLNSYAMTWVRQAPGKCLEWIGYIGSASSTYYASWASGRFTISKDNSKNTVYLQMNSLRAEDSAVYFCARGSTYINIWGQGTLVKVSSEPKSSDKTHTCPPCPAPELLGGPSVFLFPPKPKDTLMISRTPEVTCVVVDVSHEDPEVKFNWYVDGVEVHNAKTKPREEQYNSTYRVVSVLTVLHQDWLNGKEYKCKVSNKALPAPIEKTISKAKGQPREPQVYTLPPCREEMTKNQVSLSCAVKGFYPSDIAVEWESNGQPENNYKTTPPVLDSDGSFFLVSKLTVDKSRWQQGNVFSCSVMHEALHNHYTQKSLSLSPGKGGGGSGGGGSDIQMTQSPSSLSASVGDRVTITCQSSESVYSNNQLSWYQQKPGQPPKLLIYDASDLASGVPSRFSGSGSGTDFTLTISSLQPEDFATYYCAGGFSSSSDTAFGCGTKLTVLGGGGGSGGGGSGGGGSGGGGSEVQLVESGGGLVQPGGSLRLSCAASGFSLSSNAMGWVRQAPGKCLEYIGIISVGGFTYYASWAKGRFTISRDNSKNTVYLQMNSLRAEDSATYFCARDRHGGDSSGAFYLWGQGTLVKVSS
heavy: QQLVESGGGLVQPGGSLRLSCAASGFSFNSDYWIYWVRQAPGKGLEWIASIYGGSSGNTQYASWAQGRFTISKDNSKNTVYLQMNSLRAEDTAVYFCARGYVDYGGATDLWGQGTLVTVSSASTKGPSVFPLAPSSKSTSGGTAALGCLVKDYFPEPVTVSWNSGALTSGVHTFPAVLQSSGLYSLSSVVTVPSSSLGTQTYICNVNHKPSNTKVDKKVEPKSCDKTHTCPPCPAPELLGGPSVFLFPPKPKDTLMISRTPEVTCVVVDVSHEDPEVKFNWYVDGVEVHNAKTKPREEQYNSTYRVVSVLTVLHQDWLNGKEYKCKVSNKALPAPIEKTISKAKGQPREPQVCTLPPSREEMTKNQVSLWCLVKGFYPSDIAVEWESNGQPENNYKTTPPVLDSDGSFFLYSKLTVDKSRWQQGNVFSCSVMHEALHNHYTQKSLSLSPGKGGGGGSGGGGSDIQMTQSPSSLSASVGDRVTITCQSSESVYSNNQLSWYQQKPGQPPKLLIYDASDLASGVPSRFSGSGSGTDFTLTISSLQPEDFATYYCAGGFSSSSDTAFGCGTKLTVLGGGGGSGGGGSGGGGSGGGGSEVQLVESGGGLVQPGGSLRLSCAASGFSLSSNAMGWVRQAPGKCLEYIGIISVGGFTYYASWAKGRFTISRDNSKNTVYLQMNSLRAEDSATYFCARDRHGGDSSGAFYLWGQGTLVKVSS
light: DIQMTQSPSSLSASVGDRVTITCQASQSIGTYLAWYQQKPGKPPKLLIYRGGILASGVPSRFSGSGSGTDFTLTISSLQPEDFATYYCQSNFYSDSTTIGPNAFGQGTKVEIKRTVAAPSVFIFPPSDEQLKSGTASVVCLLNNFYPREAKVQWKVDNALQSGNSQESVTEQDSKDSTYSLSSTLTLSKADYEKHKVYACEVTHQGLSSPVTKSFNRGEC
With B3, the “PD-L1 driven EC50 [nM]” value in test [6] came out at 0.08 nM. Also, the “CD47 driven EC50 [nM]” value in test [7] was 13.5 nM.

B4: PRO3891 (scFv)
scFv: DIQMTQSPSSLSASVGDRVTITCQASQSINDYLAWYQQKPGKAPKLLIYKGGTLASGVPSRFSGSGSGTDFTLTISSLQPEDFATYYCQQGYIITDIDNVFGTGTKVTVLGGGGGSGGGGSGGGGSGGGGSQVQLQESGPGLVKPSETLSLTCKASGFSFSSGYDMCWVRQPPGKGLEWIACVVAGSVDITYYASWAKGRVTISKDSSKNQVSLKLSSVTAADSAVYYCARKDAYSDAFNLWGQGTLVKVSS
notes: anti-PDL1 scFv
Consider B4, for which, in test [1], the “PDL1/PD-1 EC50 [nM]” value is 1.36 nM and the “PDL1/PD-1 Max. inhibition … [%]” value was found to be 94.6%. Also, in the test with recombinant human PDL1 [2], the Kd is 0.0041 nM, the koff worked out at 3.9e-05 s⁻¹ and the kon turned out to be 6e+06 M⁻¹ s⁻¹. In test [3], the Kd amounted to 0.0034 nM, the koff amounted to 2.9e-05 s⁻¹ and the kon was determined as 5.9e+06 M⁻¹ s⁻¹.

B5: PRO2230 (scFv)
scFv: DIQMTQSPASLSASVGDRVTITCQASQSIGTYLAWYQQKPGKPPKLLIYRAFILASGVPSRFSGSGSGTDFTLTISSLQPEDFATYYCQSNFYSDSTTIGPNAFGTGTKVTVLGGGGGSGGGGSGGGGSGGGGSEVQLVESGGGLVQPGGSLRLSCAASGFSFNSDYWIYWVRQAPGKGLEWIASIYGGSSGNTQYASWAQGRFTISRDNSKNTVYLQMNSLRAEDTAVYFCARGYVDYGGATDLWGQGTLVTVSS
notes: anti-PDL1 scFv; also called 37-20-B03-sc09.1
Turning to B5, in test [1], the “PDL1/PD-1 EC50 [nM]” value came to 0.93 nM and the “PDL1/PD-1 Max. inhibition … [%]” value is 91.8%. In the test with recombinant human PDL1 [2], the Kd turned out to be 0.015 nM, the koff was 9.3e-05 s⁻¹ and the on-rate (kon) turned out to be 6.3e+06 M⁻¹ s⁻¹. In test [3], the Kd worked out at 0.012 nM, the koff amounted to 8.4e-05 s⁻¹ and the kon stood at 7e+06 M⁻¹ s⁻¹.

B6: PRO4673 (antibody)
chain 1: DVQMTQSPSSLSASVGDRVTITCQASQSISSWVSWYQQKPGKPPKLLIYRGGYLESGVPSRFSASGSGTDFTLTISSLQPEDFATYYCQSTDSSTYGGAFGCGTKVTVLGGGGGSGGGGSGGGGSGGGGSQQVVESGGGLVQPGGSLRLSCAVSGIDLNSYAMTWVRQAPGKCLEWIGYIGSASSTYYASWASGRFTISKDNSKNTVYLQMNSLRAEDSAVYFCARGSTYINIWGQGTLVKVSSEPKSSDKTHTCPPCPAPELLGGPSVFLFPPKPKDTLMISRTPEVTCVVVDVSHEDPEVKFNWYVDGVEVHNAKTKPREEQYNSTYRVVSVLTVLHQDWLNGKEYKCKVSNKALPAPIEKTISKAKGQPREPQVYTLPPCREEMTKNQVSLSCAVKGFYPSDIAVEWESNGQPENNYKTTPPVLDSDGSFFLVSKLTVDKSRWQQGNVFSCSVMHEALHNHYTQKSLSLSPGKGGGGSGGGGSDIQMTQSPSSLSASVGDRVTITCQSSESVYSNNQLSWYQQKPGQPPKLLIYDASDLASGVPSRFSGSGSGTDFTLTISSLQPEDFATYYCAGGFSSSSDTAFGCGTKLTVLGGGGGSGGGGSGGGGSGGGGSEVQLVESGGGLVQPGGSLRLSCAASGFSLSSNAMGWVRQAPGKCLEYIGIISVGGFTYYASWAKGRFTISRDNSKNTVYLQMNSLRAEDSATYFCARDRHGGDSSGAFYLWGQGTLVKVSS
chain 2: not shown
On to B6, for which the “PD-L1 driven EC50 [nM]” value in test [6] amounted to 0.18 nM. Besides, the “CD47 driven EC50 [nM]” value in test [7] was determined as 11 nM.
